The results in this text go back to US20190300625A1 (Regeneron, published 2019).

What is called EC50 is the concentration needed to bring the measured effect to its halfway point.

Assay [1] has as its target human TMPRSS2 (NP_005647.3 with a V160M) expressed on MDCK/Tet-on/hTMPRSS2 cells (human, UniProt O15393 1-492). The assay can be described thus: flow cytometry on MDCK/Tet-on/hTMPRSS2 cells, doxycycline-induced. (A flow cytometer gives signals particle by particle.)
The target of assay [2] is cynomolgous monkey TMPRSS2 (XP_015302311.1 with S129L, N251S, I415V, R431Q, D492G) expressed on … (cynomolgous monkey; SEQ ID NO …). The experiment in a line: flow cytometry on MDCK/Tet-on/mfTMPRSS2 cells, doxycycline-induced.
Sequence of cynomolgous monkey TMPRSS2 (XP_015302311.1 with S129L, N251S, I415V, R431Q, D492G) expressed on … (cynomolgous monkey; SEQ ID NO …) (chain, as listed by the source S129L N251S I415V R431Q D492G S129L N251S I415V R431Q D492G limits assumed): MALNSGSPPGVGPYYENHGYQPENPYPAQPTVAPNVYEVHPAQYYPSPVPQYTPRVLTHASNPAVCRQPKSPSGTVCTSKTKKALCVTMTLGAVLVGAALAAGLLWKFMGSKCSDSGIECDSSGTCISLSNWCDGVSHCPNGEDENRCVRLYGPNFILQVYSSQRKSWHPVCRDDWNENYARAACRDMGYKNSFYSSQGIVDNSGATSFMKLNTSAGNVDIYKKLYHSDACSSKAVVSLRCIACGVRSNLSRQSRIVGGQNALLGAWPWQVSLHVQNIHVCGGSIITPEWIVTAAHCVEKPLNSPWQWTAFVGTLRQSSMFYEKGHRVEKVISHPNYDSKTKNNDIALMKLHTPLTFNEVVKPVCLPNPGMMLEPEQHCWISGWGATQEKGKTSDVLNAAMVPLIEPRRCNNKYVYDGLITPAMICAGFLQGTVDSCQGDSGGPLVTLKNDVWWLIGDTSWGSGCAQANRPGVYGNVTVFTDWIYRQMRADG

Sequence of human TMPRSS2 (NP_005647.3 with a V160M) expressed on MDCK/Tet-on/hTMPRSS2 cells (O15393 whole entry V160M): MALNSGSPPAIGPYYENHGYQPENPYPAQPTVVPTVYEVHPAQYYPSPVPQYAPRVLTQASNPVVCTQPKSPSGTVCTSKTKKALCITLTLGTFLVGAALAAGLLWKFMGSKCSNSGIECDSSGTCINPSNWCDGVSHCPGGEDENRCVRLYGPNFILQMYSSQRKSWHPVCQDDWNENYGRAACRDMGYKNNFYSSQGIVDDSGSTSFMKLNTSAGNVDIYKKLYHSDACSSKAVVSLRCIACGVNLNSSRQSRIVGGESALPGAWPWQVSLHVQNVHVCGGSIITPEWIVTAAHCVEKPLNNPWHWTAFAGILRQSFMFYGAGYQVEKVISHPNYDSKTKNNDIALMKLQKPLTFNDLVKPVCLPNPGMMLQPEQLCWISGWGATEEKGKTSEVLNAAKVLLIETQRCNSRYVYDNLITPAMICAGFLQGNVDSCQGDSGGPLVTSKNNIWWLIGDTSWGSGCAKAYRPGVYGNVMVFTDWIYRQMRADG

B1: H1H7017N (antibody, human IgG1, kappa, V domains shown)
VH: QVQLVESGGGVVQPGRSLRLSCAASGFTFSSYGMHWVRQSPGKGLEWVAVIWNDGSYVYYADSVKGRFTISRDISKNTLFLQMNSLRAEDTAVYYCAREGEWVLYYFDYWGQGTLVTVSS
VL: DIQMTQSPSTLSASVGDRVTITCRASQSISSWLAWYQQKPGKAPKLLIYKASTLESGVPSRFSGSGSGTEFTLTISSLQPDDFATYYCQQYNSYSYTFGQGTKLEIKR
notes: also called anti-TMPRSS2 mAb; anti-hTMPRSS2 antibody
For the molecule B1, the EC50 in assay [1] is 460 pM; in assay [2], 1060 pM.
